Data on two molecules can be found in patent US20220153864A1 (Pieris, published 2022).

The target of assay [1] is T1, human CD137 expressed on cells (Flp-In-CHO::huCD137; NFkB-luc2/CD137 Jurkat cells) (human, UniProt Q07011 24-255).
T1 construct: whole, on cells; also called human CD137-expressing cells
Briefly: flow cytometry on Flp-In-CHO::huCD137 cells, anti-human IgG detection. As to the method: (§1) For flow cytometric analysis, respective cell lines were incubated with an exemplary fusion protein (SEQ ID NOs: 87 and 82), the GPC3 antibody or the CD137 specific lipocalin mutein (Fc fusion) as included in the fusion protein (SEQ ID NOs: 81 and 82 and SEQ ID NO: 98, respectively), a reference CD137 antibody SEQ ID NOs: 26 and 27, or an isotype control (SEQ ID NOs: 24 and 25) and detected using a fluorescently labeled anti-human IgG antibody in FACS analysis as described in the following:
(§2) 5×10⁴ cells per well were incubated for 1 h in ice-cold PBS containing 5% fetal calf serum (PBS-FCS). A dilution series of the testing molecule were added to the cells and incubated for 1 h on ice. Cells were washed twice with PBS and then incubated with a goat anti-hlgG Alexa647-labeled antibody or goat anti-hlgG Alexa488-labeled antibody for 30 min on ice. Cells were subsequently washed and analyzed using iQue Flow cytometer (Intellicyte Screener). Mean geometric fluorescent signals were plotted and fitted with Graphpad software. The geometric means of the fluorescence intensity were used to calculate EC₅₀ values using a four-parameter logistic regression with bottom fixed to background.
On the technique in general: In flow cytometry, cells or beads pass a laser one at a time.

Assay [2] concerns the target T2, human GPC3 expressed on cells (SK-Hep1::huGPC3; HepG2, Hep3B and MKN-45 tumor cells) (human, UniProt P51654 25-554).
T2 construct: whole, on cells; also called GPC3-positive tumor cells; human GPC3-expressing cells
The experiment in a line: flow cytometry, SK-Hep1 cells transfected with human GPC3, detection labelled anti-human IgG, GeoMean BL1-H [lower graph]. As to the method:
as §1, §2

Assay [3] concerns the target T1, human CD137 expressed on cells …. Briefly: cell-based or functional assay.
The target of assay [4] is T3, recombinant cynomolgus GPC3 (cyGPC3) (R&D Systems) (cynomolgus, UniProt A0A2K5VK50 24-558). Briefly: ELISA, cyGPC3 coated. As to the method: (§3) Recombinant huGPC3 (R&D Systems) at the concentration of 1 μg/mL in PBS was coated overnight on microtiter plates at 4° C. After five washes with 100 μL PBS-0.05% T (PBS supplemented with 0.05% (v/v) Tween 20), the plates were blocked with 2% BSA (w/v) in PBS-0.1% T (PBS-0.1% T-2% BSA) for 1 h at room temperature. After washing with 100 μL PBS-0.05% T (PBS supplemented with 0.05% (v/v) Tween 20) five times, exemplary fusion proteins (SEQ ID NOs: 87 and […] and CD137Ac1-Fusion 1 to 7) or the GPC3 antibody as include in the fusion proteins (SEQ ID NOs: 81 and 82) at different concentrations were added to the wells and incubated for 1 h at room temperature, followed by another wash step. Bound molecules under study were detected by incubation with 1:5000 diluted anti-human IgG Fc-HRP (Jackson Laboratory) in PBS-0.1% T-2% BSA. After an additional wash step, fluorogenic HRP substrate (QuantaBlu, Thermo) was added to each well and the fluorescence intensity was detected using a fluorescence microplate reader.
The same ELISA setup was also employed to determine the binding potency of fusion proteins to cynomolgus GPC3 and huCD137, where recombinant cyGPC3 (R&D Systems) or huCD137-His (recombinant human CD137 with C-terminal polyhistidine tag, R&D Systems) was instead coated on a microtiter plate. The testing agents were similarly titrated and bound agents were detected via anti-NGAL-HRP. […]
(ELISA stands for enzyme-linked immunosorbent assay.)

Assay [5] deals with T3, recombinant cynomolgus GPC3 (cyGPC3) …. Briefly: SPR (Biacore T200), binder captured by anti-human IgG Fc, cyGPC3 as analyte, 1:1 model. As to the method: (§4) The anti-human IgG Fc antibody (GE Healthcare) was immobilized on a CM5 sensor chip using standard amine chemistry: the carboxyl groups on the chip were activated using 1-ethyl-3-(3-dimethylaminopropyl)-carbodiimide (EDC) and N-hydroxysuccinimide (NHS). Subsequently, anti-human IgG Fc antibody solution (GE Healthcare) at a concentration of 25 μg/mL in 10 mM sodium acetate (pH 5.0) was applied at a flow rate of 5 μL/min until an immobilization level of 6000-10000 resonance units (RU) was achieved. Residual non-reacted NHS-esters were blocked by passing a solution of 1M ethanolamine across the surface. The reference channel was treated in an analogous manner. Subsequently, testing fusion proteins (SEQ ID NOs: 87 and 82 and CD137Ac1-Fusion 1) or the GPC3 antibody as included in the fusion protein (SEQ ID NOs: 81 and 82) at 0.2 μg/ml in HBS-EP+ buffer was captured by the anti-human IgG-Fc antibody at the chip surface for 180 s at a flow rate of 10 μL/min. After each capture step, the needle was washed.
(§5) The binding assay was carried out with a contact time of 180 s, a dissociation time of 900 s, and a flow rate of 30 μL/min. After each injection, the needle was cleaned with 40 mM NaOH+20% isopropanol. All measurements were performed at 25° C. […] Prior to the protein measurements, three startup cycles were performed for conditioning purposes. Data were evaluated with Biacore T200 Evaluation software (v2.0). Double referencing was used and the 1:1 binding model was used to fit the raw data.
A general note: Surface plasmon resonance follows binding to a sensor surface in real time, without labels.

The target of assay [6] is T2, human GPC3 expressed on cells …. The experiment in a line: flow cytometry, SK-Hep1 cells transfected with human GPC3, detection labelled anti-human IgG, GeoMean RL1-H [upper graph]. As to the method:
as §1, §2

Assay [7] concerns the target T4, huCD137-His (recombinant human CD137 with C-terminal polyhistidine tag, R&D Systems) (human, UniProt Q07011 24-186).
T4 construct: also called biotinylated huCD137-His; not shown: C-terminal polyhistidine tag
The experiment in a line: ELISA, huCD137-His coated, binder titrated to 100 nM, detection anti-NGAL-HRP per paragraph 342 (the antibody itself carries no lipocalin mutein) [upper graph].

Assay [8] has as its target T2, human GPC3 expressed on cells …. Briefly: flow cytometry on HepG2 tumor cells (GPC3 high). As to the method:
as §2
(§6) For flow cytometric analysis, tumor cell lines with different GPC3 expression levels (high to moderate expression: HepG2>Hep3B>MKN-45) and GPC3 negative cell line NCI-N87 were incubated with an exemplary fusion protein SEQ ID NOs: 87 and 82, the GPC3 antibody or the CD137 specific lipocalin mutein (Fc fusion) as included in the fusion protein (SEQ ID NOs: 81 and 82 and SEQ ID NO: 98, respectively), a reference CD137 antibody SEQ ID NOs: 26 and 27, or an isotype control (SEQ ID NO: 24 and 25), and detected using a fluorescently labeled anti-human IgG antibody as described in Example 6.

Assay [9] addresses T1, human CD137 expressed on cells …. The experiment in a line: flow cytometry, CHO cells transfected with human CD137, detection labelled anti-human IgG, GeoMean RL1-H [upper graph]. As to the method: as §1, §2
In assay [10] the target is T2, human GPC3 expressed on cells …. Briefly: flow cytometry on MKN-45 tumor cells (GPC3 moderate). As to the method:
as §2, §6

In assay [11] the target is T5, recombinant human GPC3 (huGPC3) (R&D Systems) (human, UniProt P51654 25-559).
T5 construct: also called biotinylated huGPC3
The experiment in a line: SPR (Biacore T200), binder captured by anti-human IgG Fc, huGPC3 as analyte, 1:1 model. As to the method: as §4, §5

In assay [12] the target is T2, human GPC3 expressed on cells …. The experiment in a line: flow cytometry on SK-Hep1::huGPC3 cells, anti-human IgG detection. As to the method:
as §1, §2

For assay [13], the target named is T5, recombinant human GPC3 (huGPC3) (R&D …). The experiment in a line: ELISA, huGPC3 coated, detection anti-human IgG Fc-HRP. As to the method: as §3
Exemplary results are depicted in FIG. 2A-2D, together with the fit curves resulting from a 1:1 binding sigmoidal fit, where the EC₅₀ value and the maximum signal were free parameters, and the slope was fixed to unity.

Assay [14] addresses T2, human GPC3 expressed on cells …. The experiment in a line: flow cytometry on Hep3B tumor cells (GPC3 positive). As to the method: as §2, §6

For orientation: EC50 means the concentration giving half of the maximal effect. For orientation: Kd means the equilibrium constant for the complex coming apart. Usually koff stands for the first-order rate constant of dissociation. One may read the kon as the rate constant with which the complex forms. Broadly, the EC50 (read off the curve) is the concentration giving half of the maximal effect. A higher EC50 (read off the curve) goes with weaker potency.

T2 sequence (P51654 25-554 limits assumed): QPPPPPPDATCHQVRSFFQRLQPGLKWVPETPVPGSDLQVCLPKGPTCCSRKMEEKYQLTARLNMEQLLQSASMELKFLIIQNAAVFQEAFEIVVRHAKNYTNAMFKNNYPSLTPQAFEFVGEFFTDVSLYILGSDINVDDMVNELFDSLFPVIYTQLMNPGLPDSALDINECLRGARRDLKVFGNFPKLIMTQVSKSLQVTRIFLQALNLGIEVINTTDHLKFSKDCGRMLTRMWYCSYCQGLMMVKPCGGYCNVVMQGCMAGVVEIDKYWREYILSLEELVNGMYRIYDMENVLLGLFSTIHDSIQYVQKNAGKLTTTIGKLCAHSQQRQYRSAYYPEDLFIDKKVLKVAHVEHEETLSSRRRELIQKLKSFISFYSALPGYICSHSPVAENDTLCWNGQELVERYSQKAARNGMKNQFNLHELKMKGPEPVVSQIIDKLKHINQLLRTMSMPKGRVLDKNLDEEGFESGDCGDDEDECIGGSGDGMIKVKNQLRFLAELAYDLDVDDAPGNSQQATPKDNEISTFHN
T5 sequence (P51654 25-559 limits assumed): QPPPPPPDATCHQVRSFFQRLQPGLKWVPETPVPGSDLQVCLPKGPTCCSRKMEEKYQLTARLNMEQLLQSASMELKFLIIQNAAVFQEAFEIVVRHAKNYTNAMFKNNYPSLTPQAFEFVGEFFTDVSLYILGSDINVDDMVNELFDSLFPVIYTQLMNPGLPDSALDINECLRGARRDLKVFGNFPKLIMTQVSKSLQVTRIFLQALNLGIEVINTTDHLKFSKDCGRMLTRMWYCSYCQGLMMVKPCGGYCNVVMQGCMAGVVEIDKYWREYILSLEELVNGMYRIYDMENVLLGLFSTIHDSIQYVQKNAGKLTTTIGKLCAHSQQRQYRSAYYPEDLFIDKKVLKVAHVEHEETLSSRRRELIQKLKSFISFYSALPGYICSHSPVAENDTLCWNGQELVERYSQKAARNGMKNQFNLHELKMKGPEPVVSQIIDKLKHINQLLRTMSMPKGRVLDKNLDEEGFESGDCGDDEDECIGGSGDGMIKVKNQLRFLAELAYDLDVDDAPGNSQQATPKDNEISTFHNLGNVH
T1 sequence (Q07011 24-255): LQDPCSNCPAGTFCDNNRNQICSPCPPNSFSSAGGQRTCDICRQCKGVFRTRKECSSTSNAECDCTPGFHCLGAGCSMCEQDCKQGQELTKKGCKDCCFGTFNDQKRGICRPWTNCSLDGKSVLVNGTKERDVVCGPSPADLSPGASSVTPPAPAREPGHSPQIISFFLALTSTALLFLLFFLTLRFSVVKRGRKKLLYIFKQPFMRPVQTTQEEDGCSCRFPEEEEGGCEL

B1: reference CD137 antibody (SEQ ID NOs: 26 and 27) (antibody, human IgG4 S228P, kappa, V domains shown)
VH: QVQLQQWGAGLLKPSETLSLTCAVYGGSFSGYYWSWIRQSPEKGLEWIGEINHGGYVTYNPSLESRVTISVDTSKNQFSLKLSSVTAADTAVYYCARDYGPGNYDWYFDLWGRGTLVTVSS
VL: EIVLTQSPATLSLSPGERATLSCRASQSVSSYLAWYQQKPGQAPRLLIYDASNRATGIPARFSGSGSGTDFTLTISSLEPEDFAVYYCQQRSNWPPALTFGGGTKVEIKR
For B1, the concentration for a half-maximal effect (EC50) in assay [1] is 9.61 nM. The binding result in assay [2] was “no binding (tested: 500 nM)”. Also, in assay [3], the “EC50, CD137 Bioassay (NFkB-luc2/CD137 Jurkat cells co-cultured with Hep3B)” value was found to be 1.39 nM; the “EC50, CD137 Bioassay (NFkB-luc2/CD137 Jurkat cells co-cultured with HepG2)” value is 0.94 nM; the “EC50, CD137 Bioassay (NFkB-luc2/CD137 Jurkat cells co-cultured with MKN-45)” value worked out at 1.47 nM; the “EC50, CD137 Bioassay (NFkB-luc2/CD137 Jurkat cells co-cultured with NCI-N87)” value was determined as 1.67 nM.

B2: GPC3 antibody as included in the fusion protein (SEQ ID NOs: 81 and 82) (antibody, human IgG4 S228P, kappa, F234A L235A, V domains shown)
VH: QVQLVQSGAEVKKPGASVKVSCKASGYTFTDYEMHWVRQAPGQGLEWMGALDPKTGDTAYSQKFKGRVTLTADKSTSTAYMELSSLTSEDTAVYYCTRFYSYTYWGQGTLVTLVS
VL: DVVMTQSPLSLPVTPGEPASISCRSSQSLVHSNRNTYLHWYLQKPGQSPQLLIYKVSNRFSGVPDRFSGSGSGTDFTLKISRVEAEDVGVYYCSQNTHVPPTFGQGTKLEIKR
notes: also called GPC3 specific antibody
As for B2, the 50% effective concentration (EC50) came out at 0.23 nM in assay [4]; 16.7 nM in [8]; 1.46 nM in assay [10]; 19.9 nM in assay [12]; 0.13 nM in [13]; 6.35 nM in assay [14]. Further, the Kd in [5] turned out to be 0.737 nM; in [11] it was 0.686 nM. Moreover, the off-rate (koff) amounted to 0.000151 s⁻¹ in [5] and 0.000248 s⁻¹ in [11]. The kon in assay [5] came out at 205000 M⁻¹ s⁻¹; in assay [11] it was 361000 M⁻¹ s⁻¹. In [6], the “EC50 (read off the curve)” value is around 5 nM. In addition, the binding result in assay [7] and in assay [9] was “no binding (tested: 100 nM)” each time.
